According to PMC3096012:
Values belong to the binder of their own block, whether it stands above or below them.

Columns and labels:
Experiment in all cases: SEC
[1] = target: GltPh-A V355C-S279C, unlabeled (Pyrococcus Horikoshi), O59010
[2] = target: GltPh-A V355C-P129C, unlabeled (Pyrococcus Horikoshi), O59010
[3] = target: GltPh-A A353C-L130C, unlabeled (Pyrococcus Horikoshi), O59010

- stoichiometry N [1]: 3
B1: GltPh-A V355C-S279C, unlabeled, O59010 1-425 (natural protein)
chain: MGLYRKYIEYPVLQKILIGLILGAIVGLILGHYGYAHAVHTYVKPFGDLFVRLLKMLVMPIVFASLVVGAASISPARLGRVGVKIVVYYLLTSAFAVTLGIIMARLFNPGAGIHLAVGGQQFQPHQAPPLVHILLDIVPTNPFGALANGQVLPTIFFAIILGIAITYLMNSENEKVRKSAETLLDAINGLAEAMYKIVNGVMQYAPIGVFALIAYVMAEQGVHVVGELAKVTAAVYVGLTLQILLVYFVLLKIYGIDPISFIKHAKDAMLTAFVTRSSCGTLPVTMRVAKEMGISEGIYSFTLPLGATINMDGTALYQGVATFFIANALGSHLTVGQQLTIVLTAVLASIGTAGCPGAGAIMLAMVLHSVGLPLTDPNVAAAYAMILGIDAILDMGRTMVNVTGDLTGTAIVAKTEGTLVPR
modifications: not checked

- stoichiometry N [2]: 3
B2: GltPh-A V355C-P129C, unlabeled, O59010 1-425 (natural protein)
chain: MGLYRKYIEYPVLQKILIGLILGAIVGLILGHYGYAHAVHTYVKPFGDLFVRLLKMLVMPIVFASLVVGAASISPARLGRVGVKIVVYYLLTSAFAVTLGIIMARLFNPGAGIHLAVGGQQFQPHQAPCLVHILLDIVPTNPFGALANGQVLPTIFFAIILGIAITYLMNSENEKVRKSAETLLDAINGLAEAMYKIVNGVMQYAPIGVFALIAYVMAEQGVHVVGELAKVTAAVYVGLTLQILLVYFVLLKIYGIDPISFIKHAKDAMLTAFVTRSSSGTLPVTMRVAKEMGISEGIYSFTLPLGATINMDGTALYQGVATFFIANALGSHLTVGQQLTIVLTAVLASIGTAGCPGAGAIMLAMVLHSVGLPLTDPNVAAAYAMILGIDAILDMGRTMVNVTGDLTGTAIVAKTEGTLVPR
modifications: not checked

- stoichiometry N [3]: 3
B3: GltPh-A A353C-L130C, unlabeled, O59010 1-425 (natural protein)
chain: MGLYRKYIEYPVLQKILIGLILGAIVGLILGHYGYAHAVHTYVKPFGDLFVRLLKMLVMPIVFASLVVGAASISPARLGRVGVKIVVYYLLTSAFAVTLGIIMARLFNPGAGIHLAVGGQQFQPHQAPPCVHILLDIVPTNPFGALANGQVLPTIFFAIILGIAITYLMNSENEKVRKSAETLLDAINGLAEAMYKIVNGVMQYAPIGVFALIAYVMAEQGVHVVGELAKVTAAVYVGLTLQILLVYFVLLKIYGIDPISFIKHAKDAMLTAFVTRSSSGTLPVTMRVAKEMGISEGIYSFTLPLGATINMDGTALYQGVATFFIANALGSHLTVGQQLTIVLTAVLASIGTCGVPGAGAIMLAMVLHSVGLPLTDPNVAAAYAMILGIDAILDMGRTMVNVTGDLTGTAIVAKTEGTLVPR
modifications: not checked
